Six substances from PMC6695498 can be followed below.

The term stoichiometry N denotes a count of units in the complex or per binding partner. What is called Kd is the equilibrium constant for the complex coming apart. High values mean lower affinity, low ones higher affinity.

In assay [1] the target is Arkadia (RING finger protein 111, RNF111), wild type, expressed in S. cerevisiae (human) (UniProt Q6ZNA4).
The next assay deals with FLAG-SUMO2-GFP-COMP-HA. Nature of the assay: native gel or EMSA; native PAGE of the GFP-COMP substrates expressed in S. cerevisiae. For orientation: In EMSA bound probe runs differently from free probe, usually more slowly.
The target of the next assay is SUMO1-GFP-COMP-HA. The description is as above.
Assay [2] addresses SUMO-binding domain of Arkadia (residues 285–416) with mutations in the SOB motif (SOB*) (murine) (UniProt Q99ML9). Nature of the assay: ITC. For orientation: In ITC the heat of successive injections is recorded.

Sequence of SUMO-binding domain of Arkadia (residues 285–416) with mutations in the SOB motif (SOB*) (murine) (Q99ML9 285-416, change not shown): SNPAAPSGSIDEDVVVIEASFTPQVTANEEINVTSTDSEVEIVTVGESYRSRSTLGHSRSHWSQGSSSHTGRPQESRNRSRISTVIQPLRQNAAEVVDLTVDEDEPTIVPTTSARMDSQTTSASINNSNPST
Sequence of Arkadia (RING finger protein 111, RNF111), wild type, expressed in S. cerevisiae (human) (Q6ZNA4 whole entry): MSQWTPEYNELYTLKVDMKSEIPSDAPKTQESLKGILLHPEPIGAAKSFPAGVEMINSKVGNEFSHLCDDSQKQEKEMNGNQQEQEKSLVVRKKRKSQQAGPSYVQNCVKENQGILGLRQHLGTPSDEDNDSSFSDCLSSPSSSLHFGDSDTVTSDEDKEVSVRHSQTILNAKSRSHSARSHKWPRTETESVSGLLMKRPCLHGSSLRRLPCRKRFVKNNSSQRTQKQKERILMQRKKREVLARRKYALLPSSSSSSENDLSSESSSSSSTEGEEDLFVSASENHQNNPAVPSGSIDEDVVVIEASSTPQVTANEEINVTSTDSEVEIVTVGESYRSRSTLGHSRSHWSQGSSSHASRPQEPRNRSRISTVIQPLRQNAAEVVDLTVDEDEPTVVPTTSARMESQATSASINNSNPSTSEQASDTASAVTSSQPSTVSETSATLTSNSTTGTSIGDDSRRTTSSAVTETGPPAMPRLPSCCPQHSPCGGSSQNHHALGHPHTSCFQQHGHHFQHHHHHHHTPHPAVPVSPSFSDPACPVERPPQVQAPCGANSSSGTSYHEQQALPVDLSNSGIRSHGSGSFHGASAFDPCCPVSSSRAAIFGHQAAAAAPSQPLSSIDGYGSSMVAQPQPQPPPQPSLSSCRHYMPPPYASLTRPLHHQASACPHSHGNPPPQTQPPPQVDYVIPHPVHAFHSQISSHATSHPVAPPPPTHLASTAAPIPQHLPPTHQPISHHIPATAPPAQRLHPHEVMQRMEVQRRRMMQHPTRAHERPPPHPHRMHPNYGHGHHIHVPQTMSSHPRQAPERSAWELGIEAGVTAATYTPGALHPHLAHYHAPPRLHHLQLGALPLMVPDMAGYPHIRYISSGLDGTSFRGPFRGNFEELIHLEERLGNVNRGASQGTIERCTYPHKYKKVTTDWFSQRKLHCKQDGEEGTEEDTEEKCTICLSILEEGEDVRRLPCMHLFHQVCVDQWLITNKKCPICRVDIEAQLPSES

“FLAG-4xSUMO2-GFP-HA (from UniProt P61956 12-95; P61956 12-95; P61956 12-95)” gave a steady-state level of the reporter in S. cerevisiae co-expressing Arkadia, against the vector control (quantitative anti-HA Western blot) in assay [1] of 60%.
FLAG-SUMO1-3xSUMO2-GFP-HA yielded a steady-state level of the reporter in S. cerevisiae co-expressing Arkadia, against the vector control (quantitative anti-HA Western blot) in assay [1] of 25%.
On to FLAG-SUMO2-GFP-COMP-HA, for which the stoichiometry N with FLAG-SUMO2-GFP-COMP-HA worked out at 5.
SUMO1-GFP-COMP-HA displayed a stoichiometry N with SUMO1-GFP-COMP-HA of 5.
The substance “linear SUMO1-capped SUMO2 trimer (SUMO1-ΔN15 followed by two SUMO2-ΔN11) (from UniProt P63165 16-101; P61956 12-95; P61956 12-95)” displayed a Kd in assay [2] of 12.4 µM.
The substance “linear SUMO2 trimer (tri-SUMO2-ΔN11) (from UniProt P61956 12-95; P61956 12-95; P61956 12-95)” yielded a dissociation constant Kd in assay [2] of 11.1 µM.
